Assay [1] deals with T1, human Trop-2 (on the surface of human cell lines) (human, UniProt P09758 27-323).
T1 sequence: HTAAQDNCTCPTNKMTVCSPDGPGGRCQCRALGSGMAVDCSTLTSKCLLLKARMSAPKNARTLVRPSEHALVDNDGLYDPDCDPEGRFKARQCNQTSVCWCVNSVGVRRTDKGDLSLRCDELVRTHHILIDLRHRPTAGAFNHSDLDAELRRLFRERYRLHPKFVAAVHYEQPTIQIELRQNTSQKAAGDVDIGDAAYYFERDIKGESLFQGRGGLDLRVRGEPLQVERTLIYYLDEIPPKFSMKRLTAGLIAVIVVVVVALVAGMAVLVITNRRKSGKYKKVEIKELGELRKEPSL
Description: cell-based or functional assay.

The next assay concerns the target T2, Macaque Trop-2-His (macaque, UniProt P09758 27-274 (human entry)).
T2 construct: Extracellular domain of macaque Trop-2 recombinantly linked to His; also called monkey Trop-2-His protein; monkey Trop-2
T2 chain: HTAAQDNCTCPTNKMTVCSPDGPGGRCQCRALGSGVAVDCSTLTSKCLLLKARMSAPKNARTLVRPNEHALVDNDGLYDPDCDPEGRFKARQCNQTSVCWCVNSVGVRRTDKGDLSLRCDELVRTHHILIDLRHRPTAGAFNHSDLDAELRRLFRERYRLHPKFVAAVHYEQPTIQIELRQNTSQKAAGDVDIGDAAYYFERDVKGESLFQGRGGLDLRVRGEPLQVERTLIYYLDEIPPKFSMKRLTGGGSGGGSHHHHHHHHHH
Description: ELISA, plate-coated macaque Trop-2-His. The protocol:
(§1) After the liquid was discarded, 2% BSA (SIGMA, B2064-100G) diluted with PBS was added at 300 μL/well for blocking, and the mixture was incubated at 37° C. for 2 h. After the blocking was completed, the blocking buffer was discarded, the plate was washed 3 times with the PBST buffer (pH 7.4 PBS containing 0.1% tween-20), the antibody solution diluted in a gradient was added at 100 μL/well, and the mixture was incubated at 37° C. for 1 h. After the incubation was completed, the plate was washed 3 times with PBST, the goat anti-human IgG (H+L) (JacksonImmunoResearch, 109-035-098, 1:5000 dilution) was added at 100 μL/well, and the mixture was incubated at 37° C. for 1 h. After the plate was washed 3 times with PBST, a TMB chromogenic substrate (TIANGEN, PA107-01) was added at 100 μL/well. The mixture was incubated at room temperature for 10-15 min, and then 1 M H₂SO₄ was added at 50 μL/well to terminate the reaction. The absorbance values at 450 nm were taken using a microplate reader. The binding curves of antibodies for antigen were fitted using software, and the EC₅₀ values were calculated.
Background: An ELISA detects its analyte on a solid surface through an enzyme-linked reagent.

Assay [2] addresses T1, human Trop-2 (on the surface of human …). Put plainly: flow cytometry, HCC38 cells. The protocol: (§2) Tumor cells expressing Trop-2 were prepared into a cell suspension (0.5-1×10⁶ cells/mL) using the FACS buffer (Miltenyi Biotec, 130-091-221), and the cell suspension was added to a 96-well V-bottom plate at 100 μL/well. After centrifugation and removal of the supernatant, the test antibodies diluted with the FACS buffer to different concentrations (0.006 nM-100 nM) were each added at 50 μL/well. The mixture was incubated in the dark in a 4° C. refrigerator for 1 h. The plate was then washed 3 times with the FACS buffer by centrifugation at 300 g, and Alexa Fluor 488 goat anti-human IgG (H+L) (Bio-legend, 409304, 1:500 dilution) at working concentration was added. The mixture was incubated in the dark in a 4° C. refrigerator for 40 min. The plate was then washed 3 times with the FACS buffer by centrifugation at 300 g, the geometric mean fluorescence intensity (MFI) was measured on a Sartorius iQue3 flow cytometer, and the binding EC₅₀ values of the antibodies for tumor cells with different Trop-2 expression levels were calculated
(In flow cytometry, cells or beads pass a laser one at a time.)

Assay [3] shares this target. Put plainly: cell-based or functional assay. This is another data set of the same source.
For assay [4] the target is unchanged. Put plainly: flow cytometry, HCC1806 cells. How it is done:
as §2

The target of assay [5] is T3, human Trop-2-His (human, UniProt P09758 27-274, limits assumed).
T3 construct: by analogy with the macaque construct it is probably the extracellular domain with a His tag; also called Trop-2-His protein
T3 sequence: T2 chain with V36M, N67S, V204I
Put plainly: ELISA, plate-coated human Trop-2-His. How it is done: as §1, with “with” for “with the”

In assay [6] the target is T3, human Trop-2-His. Description: SPR (Biacore 8K), antibody captured, Trop-2-His as analyte. From the text:
The affinity of antibodies for human Trop-2-His was detected in the form of antibody capturing. The antibody was affinity-captured by a CM5 (Cat. #29149603, GE) biosensor chip conjugated with an anti-human IgG antibody (from human antibody capture kit, Cat. #29234600, GE), then the antigen human Trop-2-His flowed on the surface of the chip, and a Biacore 8K instrument was used for detecting reaction signals in real time to obtain association and dissociation curves. After dissociation was completed for each assay cycle, the chip was washed clean and regenerated with a regeneration buffer, 3M MgCl₂ (from human antibody capture kit, Cat. #29234600, GE). The association and dissociation curves were collected by Biacore 8K Control Software 3.0 in real time, and the data were analyzed by Biacore Insight Evaluation Software 3.0. The data were fitted using a Langmuir 1:1 model after double subtraction (namely, in each cycle, the contrast channel signal was subtracted from the experimental channel signal, and the sample signal was subtracted from the blank signal), and the association rate constant Ka, the dissociation rate constant Kd, and the equilibrium constant KD were calculated.

Five molecules from US20250034275A1 (CHIA TAI TIANQING PHARMACEUTICAL GROUP, published 2025) can be followed below.

Residue numbers refer to the chain shown, from its start.

B1: ch-Ab2 (antibody, human IgG1, kappa, V domains shown)
VH: EVQLVESGPGLVAPSQSLSITCTVSGFSLTYYGIDWVRQPPGKGLEWLGVIWGSGNTKYNSALMSRLSISKDNSKSQVFLRMNSLQSDDTAIYYCARFYEGFAYWGQGTLVTVSA
VL: AIVLTQSPSSMYASLGERVTITCKASQDINSYLSWFQQKPGKSPKTLIYRANRLVDGVPSRFSGSGSGQDYSLTISSLEYEDMGIYYCLQYDEFPLTFGVGTKLELKR
notes: also called chimeric antibody of Ab2
In the case of B1, in assay [1], the “ADCC, PBMC killing (LDH), H322, EC50” value stood at 0.01 nM; the “ADCC, PBMC killing (LDH), H322, Maximum killing (%)” value (shortened to “ADCC … H322, Maximum killing (%)”) is 48.1%; the “ADCC, PBMC killing (LDH), HCC1806, EC50” value was found to be 0.02 nM; the “ADCC, PBMC killing (LDH), HCC1806, Maximum killing (%)” value (“ADCC … HCC1806, Maximum killing (%)” below) came to 40%. Moreover, the half-maximal effective concentration (EC50) (in general, the concentration that produces a half-maximal response) in the assay with Macaque Trop-2-His worked out at 0.048 nM. Further, in assay [2], the concentration for a half-maximal effect (EC50) was found to be 0.59 nM. For the same molecule, in assay [3], the “ADCC reporter (Jurkat-CD16a v158-NFAT-luciferase), target cell H322, EC50” value (“ADCC reporter … target cell H322, EC50” for short) is 0.17 nM and the “ADCC reporter (Jurkat-CD16a v158-NFAT-luciferase), target cell HCC1806, EC50” value (“ADCC reporter … target cell HCC1806, EC50” for short) worked out at 0.2 nM. The molecule also returned an EC50 in assay [4] of 0.78 nM. In addition, the EC50 with human Trop-2-His [5] was 0.085 nM.

B2: hz-Ab2-1.2 (antibody, human IgG1, kappa, V domains shown)
VH: EVQLVESGPGLIQPGGSLRLSCAVSGFSLTYYGIDWVRQPPGKGLEWVGVIWGSGNTKYNYALKSRLTISKDNSKSTLYLQMNSLRAEDTAVYYCARFYEGFAYWGQGTLVTVSS
VL: DIQMTQSPSSLSASVGDRVTITCKASQDINSYLSWFQQKPGKAPKTLIYRANRLVEGVPSRFSGSGSGQDYTLTISSLQPEDFATYYCLQYDEFPLTFGQGTKVEIKR
notes: Humanized antibody
B2: in assay [1], the “ADCC, PBMC killing (LDH), H322, EC50” value stood at 0.01 nM; the “ADCC … H322, Maximum killing (%)” value came out at 48.4%; the “ADCC, PBMC killing (LDH), HCC1806, EC50” value came out at 0.03 nM; the “ADCC … HCC1806, Maximum killing (%)” value amounted to 36.6%. This molecule also came in with an EC50 with Macaque Trop-2-His of 0.064 nM. For the same molecule, in the assay with human Trop-2-His [6], the Kd (as a rule, the constant that tells how readily two partners part at equilibrium) stood at 1.43 nM; the off-rate (koff) (commonly the rate constant with which the complex falls apart) was 0.00508 s⁻¹; the kon (in general, the rate constant with which the complex forms) came to 3.56e+06 M⁻¹ s⁻¹. This molecule showed an EC50 in assay [2] of 0.76 nM. Further, in assay [3], the “ADCC reporter … target cell H322, EC50” value came to 0.31 nM and the “ADCC reporter … target cell HCC1806, EC50” value came out at 0.42 nM. Besides, the half-maximal effective concentration (EC50) in assay [4] was determined as 0.9 nM. The midpoint of the response in the assay with human Trop-2-His [5], the EC50, lay at 0.076 nM.

B3: hz-Ab2-1.3 (antibody, human IgG1, kappa, V domains shown)
VH: QVQLQESGPGLVKPSETLSLTCTVSGFSLTYYGIDWIRQPPGKGLEWIGVIWGSGNTKYNSALKSRVTISKDNSKSQFSLKLSSVTAADTAVYYCARFYEGFAYWGQGTLVTVSS
VL: B2 VL
notes: Humanized antibody
For B3, in assay [1], the “ADCC, PBMC killing (LDH), H322, EC50” value turned out to be 0.02 nM; the “ADCC … H322, Maximum killing (%)” value is 48.1%; the “ADCC, PBMC killing (LDH), HCC1806, EC50” value was 0.06 nM; the “ADCC … HCC1806, Maximum killing (%)” value came to 37%. This molecule registered a concentration giving a half-maximal response (EC50) in the assay with Macaque Trop-2-His of 0.068 nM. Further, in the assay with human Trop-2-His [6], the affinity, expressed as Kd, was 16.5 nM; the koff was 0.0165 s⁻¹; the kon came out at 1e+06 M⁻¹ s⁻¹. The molecule also displayed a concentration giving a half-maximal response (EC50) in assay [2] of 0.65 nM. For the same molecule, in assay [3], the “ADCC reporter … target cell H322, EC50” value was determined as 0.17 nM and the “ADCC reporter … target cell HCC1806, EC50” value turned out to be 0.33 nM. Moreover, a half-maximal response in assay [4] (EC50) required 1.22 nM. This molecule registered an EC50 with human Trop-2-His [5] of 0.081 nM.

B4: hz-Ab2-2.4 (antibody, human IgG1, kappa, V domains shown)
VH: B3 VH with F78V, S79Y
VL: B2 VL with K24R, Y71F, F94Y
notes: Humanized antibody
As for B4, in assay [1], the “ADCC, PBMC killing (LDH), H322, EC50” value is 0.07 nM; the “ADCC … H322, Maximum killing (%)” value was found to be 46.7%; the “ADCC, PBMC killing (LDH), HCC1806, EC50” value came to 0.15 nM; the “ADCC … HCC1806, Maximum killing (%)” value was found to be 33.3%. In addition, the midpoint of the response with Macaque Trop-2-His, the EC50, lay at 0.07 nM. Further, in the assay with human Trop-2-His [6], the Kd was 11.6 nM, the koff came to 0.00483 s⁻¹ and the association rate constant (kon) came out at 415000 M⁻¹ s⁻¹. Moreover, the concentration for a half-maximal effect (EC50) in assay [2] is 0.45 nM. In addition, in assay [3], the “ADCC reporter … target cell H322, EC50” value stood at 0.66 nM and the “ADCC reporter … target cell HCC1806, EC50” value amounted to 1.51 nM. This molecule gave a 50% effective concentration (EC50) in assay [4] of 1.23 nM. In addition, the EC50 with human Trop-2-His [5] came out at 0.1 nM.

B5: hz-Ab2-1.4 (antibody, human IgG1, kappa, V domains shown)
VH: B3 VH with F78V, S79Y
VL: B2 VL
notes: Humanized antibody
As for B5, in assay [1], the “ADCC, PBMC killing (LDH), H322, EC50” value turned out to be 0.01 nM; the “ADCC … H322, Maximum killing (%)” value stood at 48.7%; the “ADCC, PBMC killing (LDH), HCC1806, EC50” value was 0.02 nM; the “ADCC … HCC1806, Maximum killing (%)” value was found to be 34.8%. Further, the EC50 in the assay with Macaque Trop-2-His turned out to be 0.053 nM. In the assay with human Trop-2-His [6], this molecule showed a dissociation constant (Kd) of 2.32 nM, a dissociation rate constant (koff) of 0.00284 s⁻¹ and an on-rate constant (kon) of 1.22e+06 M⁻¹ s⁻¹. The molecule also returned a half-maximal effective concentration (EC50) in assay [2] of 1.2 nM. In assay [3], the “ADCC reporter … target cell H322, EC50” value was determined as 0.34 nM and the “ADCC reporter … target cell HCC1806, EC50” value is 0.39 nM. This molecule yielded an EC50 in assay [4] of 1.07 nM. The EC50 with human Trop-2-His [5] came out at 0.068 nM.
